± gives the standard error. Variants at the floor of the assay were thinned out.
B1: glmS ribozyme (parent)
chain: AUAAAAGCGCCAGAACUACAGAAAUGUAGUUGACGAGGAGGAGGUUUAUCGAAUUUUCGGCGGAUGCCUCCAAA

Tests used:
Conditions in all cases: with glucosamine-6-phosphate
[1] = variants of: B1; assay: self-cleavage kobs at 40 uM GlcN6P; higher = faster cleavage; RNA array
How it was run: (§1)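 Ribozyme variants carrying barcodes were transcribed in situ on sequenced MiSeq chips by E. coli RNA polymerase and tracked at 37 °C with a hybridised Cy3 probe. They were exposed to 40 μM to 10 mM glucosamine-6-phosphate in HEPES/KCl/Mg(OAc)2 buffer. kobs came from exponential decay fits of normalised per-tile medians, and kcat and KM from weighted Michaelis–Menten fits.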

[2] = variants of: B1; assay: self-cleavage kobs at 160 uM GlcN6P; higher = faster cleavage; RNA array
How it was run: as §1

[3] = variants of: B1; assay: self-cleavage kobs at 640 uM GlcN6P; higher = faster cleavage; RNA array
How it was run: as §1

[4] = variants of: B1; assay: self-cleavage kobs at 2500 uM GlcN6P; higher = faster cleavage; RNA array
How it was run: as §1

[5] = variants of: B1; assay: self-cleavage kobs at 10000 uM GlcN6P; higher = faster cleavage; RNA array
How it was run: as §1

Variant	self-cleavage kobs at 40 uM GlcN6P [1]	self-cleavage kobs at 160 uM GlcN6P [2]	self-cleavage kobs at 640 uM GlcN6P [3]	self-cleavage kobs at 2500 uM GlcN6P [4]	self-cleavage kobs at 10000 uM GlcN6P [5]
U55A U69C	0.000718 ± 0.00017 s⁻¹	0.000108 ± 3.1e-05 s⁻¹	0.000329 ± 0.0001 s⁻¹	7.69e-05 ± 3e-05 s⁻¹	0.00148 ± 0.0004 s⁻¹
U55C C68G	< 1e-05 s⁻¹				< 1e-05 s⁻¹
U54G U55A	0.00109 ± 0.00018 s⁻¹				0.0495 ± 0.015 s⁻¹
A53U G59C	< 1e-05 s⁻¹	< 1e-05 s⁻¹	< 1e-05 s⁻¹	< 1e-05 s⁻¹	< 1e-05 s⁻¹
U54A G60C	< 1e-05 s⁻¹		< 1e-05 s⁻¹		< 1e-05 s⁻¹
A53U C67U	0.000272 ± 2.9e-05 s⁻¹	0.000713 ± 8.9e-05 s⁻¹	0.00132 ± 0.00019 s⁻¹	0.0104 ± 0.0027 s⁻¹	0.0214 ± 0.0049 s⁻¹
U54G C67G	0.000338 ± 4.2e-05 s⁻¹	0.000142 ± 4.5e-05 s⁻¹	0.00079 ± 0.00024 s⁻¹	0.000568 ± 0.00012 s⁻¹	0.00398 ± 0.0006 s⁻¹
U57C C61U	< 1e-05 s⁻¹	< 1e-05 s⁻¹	< 1e-05 s⁻¹	< 1e-05 s⁻¹	< 1e-05 s⁻¹
U54C C70A	3e-05 ± 1.2e-05 s⁻¹	5.86e-05 ± 2.8e-05 s⁻¹	0.000124 ± 2.4e-05 s⁻¹	0.000512 ± 0.00011 s⁻¹	0.000206 ± 2.9e-05 s⁻¹
A52U U55A U57C C67A	< 1e-05 s⁻¹				< 1e-05 s⁻¹
A53U C61A	< 1e-05 s⁻¹				< 1e-05 s⁻¹
A53C G59A	< 1e-05 s⁻¹		< 1e-05 s⁻¹		
A52C G62C C70A	< 1e-05 s⁻¹				
U56G G62A G63A	< 1e-05 s⁻¹				
U55C G63A	< 1e-05 s⁻¹	< 1e-05 s⁻¹		< 1e-05 s⁻¹	< 1e-05 s⁻¹
U56G G62A	< 1e-05 s⁻¹			< 1e-05 s⁻¹	< 1e-05 s⁻¹
U55G C67U	0.000342 ± 3.5e-05 s⁻¹	0.000573 ± 9.2e-05 s⁻¹	0.000864 ± 0.00017 s⁻¹	0.00136 ± 0.00026 s⁻¹	0.0121 ± 0.0017 s⁻¹
U54G C71U	0.00109 ± 0.00015 s⁻¹	0.00194 ± 0.00038 s⁻¹	0.00857 ± 0.00098 s⁻¹	0.0283 ± 0.0078 s⁻¹	0.0636 ± 0.013 s⁻¹
A52C U55C	< 1e-05 s⁻¹	< 1e-05 s⁻¹			
U56A C61U	< 1e-05 s⁻¹	< 1e-05 s⁻¹			
U55G G60U	< 1e-05 s⁻¹	< 1e-05 s⁻¹	< 1e-05 s⁻¹	< 1e-05 s⁻¹	
U56C G60U C68U	< 1e-05 s⁻¹				

Variant	self-cleavage kobs at 40 uM GlcN6P [1]	self-cleavage kobs at 160 uM GlcN6P [2]	self-cleavage kobs at 640 uM GlcN6P [3]	self-cleavage kobs at 2500 uM GlcN6P [4]	self-cleavage kobs at 10000 uM GlcN6P [5]
U54A C68G C70U	8.05e-05 ± 2.2e-05 s⁻¹				
U55A U57C U69C C70U	< 1e-05 s⁻¹				
U54G G63C	< 1e-05 s⁻¹		< 1e-05 s⁻¹	< 1e-05 s⁻¹	< 1e-05 s⁻¹
A52G U56C	< 1e-05 s⁻¹		4.15e-05 ± 1.2e-05 s⁻¹	7.09e-05 ± 1.3e-05 s⁻¹	0.000259 ± 4.9e-05 s⁻¹
A52U A64G C70A	< 1e-05 s⁻¹				
U56A G62C	< 1e-05 s⁻¹			< 1e-05 s⁻¹	< 1e-05 s⁻¹
U55C G63U U69A	< 1e-05 s⁻¹		< 1e-05 s⁻¹		< 1e-05 s⁻¹
A53U U65A	4.97e-05 ± 1.8e-05 s⁻¹	7.52e-05 ± 2.1e-05 s⁻¹		0.00238 ± 0.00058 s⁻¹	0.00253 ± 0.00061 s⁻¹
U54A G66A C67G	5.57e-05 ± 1.5e-05 s⁻¹			0.000119 ± 4.7e-05 s⁻¹	0.000693 ± 0.00017 s⁻¹
U56G C67U	0.000109 ± 1.2e-05 s⁻¹	0.000258 ± 4.6e-05 s⁻¹	0.00135 ± 0.00015 s⁻¹	0.00142 ± 0.00022 s⁻¹	0.00538 ± 0.00085 s⁻¹
U56A C71U	0.000282 ± 3.8e-05 s⁻¹	0.000738 ± 0.00012 s⁻¹	0.00243 ± 0.00036 s⁻¹	0.0201 ± 0.0072 s⁻¹	0.018 ± 0.0044 s⁻¹
A52G A64U	< 1e-05 s⁻¹	< 1e-05 s⁻¹			
A53C U57C C67G	< 1e-05 s⁻¹				< 1e-05 s⁻¹
C58G A64G C70G	< 1e-05 s⁻¹				
U55G U56A	0.000287 ± 6.6e-05 s⁻¹		0.00208 ± 0.00047 s⁻¹	0.00834 ± 0.0016 s⁻¹	0.0131 ± 0.0051 s⁻¹
U54C C67U	0.000255 ± 4.3e-05 s⁻¹	0.000586 ± 0.00012 s⁻¹	0.000928 ± 0.00027 s⁻¹	0.00157 ± 0.00051 s⁻¹	0.0047 ± 0.0014 s⁻¹
A52G G66C	< 1e-05 s⁻¹			4.69e-05 ± 1.5e-05 s⁻¹	
U57G G60U	< 1e-05 s⁻¹	< 1e-05 s⁻¹	< 1e-05 s⁻¹	< 1e-05 s⁻¹	
A53G U57C G63U	< 1e-05 s⁻¹				< 1e-05 s⁻¹
C58U U65G	< 1e-05 s⁻¹	< 1e-05 s⁻¹	< 1e-05 s⁻¹		
U56C C58U G60U	< 1e-05 s⁻¹	< 1e-05 s⁻¹		< 1e-05 s⁻¹	

Source: the supplement of paper PMC7125110
